This is an account of results in PMC10855199.

For this assay, the target named is Aβ42 oligomers. The assay can be described thus: SPR; Biacore T200; AL fibrils (1000 RU) or Aβ42 oligomers (500 RU) amine-coupled on CM5; two-fold serial dilutions of whole antibody injected at 30 μL/min; 25 °C; 10 mM phosphate, 137 mM NaCl, 2.7 mM KCl, 0.05% Tween-20, pH 7.5; global fit to a Langmuir 1:1 model. Background: SPR reads the build-up and loss of mass on a sensor chip optically.

B1: wild-type crenezumab (antibody, V domains shown)
VH: EVQLVESGGGLVQPGGSLRLSCAASGFTFSSYGMSWVRQAPGKGLELVASINSNGGSTYYPDSVKGRFTISRDNAKNSLYLQMNSLRAEDTAVYYCASGDYWGQGTTVTVSS
VL: DIVMTQSPLSLPVTPGEPASISCRSSQSLVYSNGDTYLHWYLQKPGQSPQLLIYKVSNRFSGVPDRFSGSGSGTDFTLKISRVEAEDVGVYYCSQSTHVPWTFGQGTKVEIK
Usually Kd stands for a measure of binding affinity in units of concentration. A word on the koff: it is the first-order rate constant of dissociation. Low readings indicate a long-lived complex, high ones a short-lived complex. For orientation: kon means the second-order rate constant of association. In turn, B1 returned a Kd of 1.53 nM, an off-rate constant (koff) of 0.00116 s⁻¹ and an association rate constant (kon) of 761000 M⁻¹ s⁻¹.
